This is an account of results in article PMC11305080.

Assay [1] has as its target HIT01-K21Q-R218E (cleavage-resistant variant of HIT01) (Pangasianodon hypophthalmus (iridescent shark) scaffold with human PCSK9 stretches). Briefly: BLI. Background: Biolayer interferometry detects binding as a change in optical thickness at a sensor tip.
Assay [2] has as its target human proprotein convertase subtilisin/kexin type 9 (PCSK9) (human) (UniProt Q8NBP7). Nature of the assay: BLI.

Consider Alirocumab, for which the values for the Kd in assay [1] and in assay [2] were 2.78 nM and 1.71 nM, respectively.
